Biological target: T1, His-tagged human NOTCH3 intracellular domain (aa 1665-2321) (human, UniProt Q9UM47 1665-2321)
T1 construct: human NOTCH3 intracellular domain, aa 1665-2321; also called His-NICD3; source: E. coli, purified (GeneCreate Biological Engineering)
T1 sequence (looked up): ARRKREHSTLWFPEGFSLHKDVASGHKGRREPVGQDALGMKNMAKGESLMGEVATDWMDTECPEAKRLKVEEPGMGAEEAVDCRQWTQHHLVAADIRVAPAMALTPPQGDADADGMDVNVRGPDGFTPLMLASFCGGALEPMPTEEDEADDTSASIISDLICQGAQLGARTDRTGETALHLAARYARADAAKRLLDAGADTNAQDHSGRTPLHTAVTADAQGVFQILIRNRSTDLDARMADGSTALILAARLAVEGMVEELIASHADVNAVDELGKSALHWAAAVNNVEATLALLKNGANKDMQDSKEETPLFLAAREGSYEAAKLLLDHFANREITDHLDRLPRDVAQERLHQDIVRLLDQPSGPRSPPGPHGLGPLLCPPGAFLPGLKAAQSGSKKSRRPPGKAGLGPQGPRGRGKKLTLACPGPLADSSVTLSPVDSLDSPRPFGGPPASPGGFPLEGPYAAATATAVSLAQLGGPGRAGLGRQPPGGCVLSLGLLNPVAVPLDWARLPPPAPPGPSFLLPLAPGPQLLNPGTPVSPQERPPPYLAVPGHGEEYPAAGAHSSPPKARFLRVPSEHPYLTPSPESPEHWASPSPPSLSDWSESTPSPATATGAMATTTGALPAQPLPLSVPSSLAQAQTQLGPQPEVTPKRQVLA
Assay: pull-down; GST pull-down: purified GST-tagged SMARCA4 segments mixed with His-NICD3 on ice for 3 h, beads, five washes, elution with 15 mM reduced glutathione; blots with anti-GST and anti-His; GST as negative control
Details: both partners purified

B1: GST-tagged SMARCA4 BROMO domain (aa 1455-1566) (domain or fragment, human, UniProt P51532 1455-1566, looked up)
chain: PPNLTKKMKKIVDAVIKYKDSSSGRQLSEVFIQLPSRKELPEYYELIRKPVDFKKIKERIRNHKYRSLNDLEKDVMLLCQNAQTFNLEGSLIYEDSIVLQSVFTSVRQKIEK
notes: also called SMART BROMO domain; source: E. coli, purified (GeneCreate Biological Engineering)
  binding result: binds

B2: GST-tagged SMARCA4 BRK domain (aa 612-656) (domain or fragment, human, UniProt P51532 612-656, looked up)
chain: MSDLPVKVIHVESGKILTGTDAPKAGQLEAWLEMNPGYEVAPRSD
notes: also called SMART BRK domain; source: E. coli, purified (GeneCreate Biological Engineering)
  binding result: binds

From article PMC9533685, “NICD3 regulates the expression of MUC5AC and MUC2 by recruiting SMARCA4 and is involved in the differentiation of mucinous colorectal adenocarcinoma” (Molecular Oncology, 2022)
